Test results as given in article PMC4297639 (Nature protocols, 2014).

Molecular target: BACE2 (aspartic protease, recombinant, wild-type) (Homo sapiens (assumed; ), UniProt Q9Y5Z0)
Assay: crystal structure

Chain of BACE2 (aspartic protease, recombinant, wild-type) (Q9Y5Z0 21-518): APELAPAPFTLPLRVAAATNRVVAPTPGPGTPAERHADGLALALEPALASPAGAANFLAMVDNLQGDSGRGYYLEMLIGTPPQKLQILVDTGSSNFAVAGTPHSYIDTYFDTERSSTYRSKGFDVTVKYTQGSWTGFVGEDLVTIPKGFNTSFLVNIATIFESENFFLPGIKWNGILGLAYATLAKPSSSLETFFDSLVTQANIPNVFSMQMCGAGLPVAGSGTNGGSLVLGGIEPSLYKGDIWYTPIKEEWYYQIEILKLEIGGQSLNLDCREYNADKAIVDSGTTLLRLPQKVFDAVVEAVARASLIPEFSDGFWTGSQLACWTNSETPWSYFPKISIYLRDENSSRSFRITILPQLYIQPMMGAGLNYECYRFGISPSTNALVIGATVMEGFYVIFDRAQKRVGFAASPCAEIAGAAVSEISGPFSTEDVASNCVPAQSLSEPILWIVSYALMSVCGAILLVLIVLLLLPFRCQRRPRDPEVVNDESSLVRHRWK

B1: Nanobody XA4815 (VHH)
VHH: QVQLQESGGGLVQAGGSLRLSCAASGFTFSRAAMRWVRRAPERGLEWVANINAGDGSASYADFVKGRFTASRDKAGNRLYLQMDNLRPNDTAVYYCIYNGHRGQGTQVTVSS
  binding result: binds
